The results in this text go back to the Human Domainome abundance scans (Beltran et al. 2025).

± gives the uncertainty stated by the source.

B1: Dystrobrevin alpha, residues 235 to 294; numbered along this chain, Q9Y4J8 (parent)
chain: ENVFHPVECSYCHSESMMGFRYRCQQCHNYQLCQDCFWRGHAGGSHSNQHQMKEYTSWKS
B2: Lysine-specific demethylase 2B, residues 656 to 722; numbered along this chain, Q8NHM5 (parent)
chain: LPHTAVCLVCGEAGKEDTVEEEEGKFNLMLMECSICNEIIHPGCLKIKESEGVVNDELPNCWECPKC

The variants in the first series derive from B1. Description: abundance fitness (aPCA) (normalised: wild type 0, dead -1); higher = more abundant; growth selection in yeast, the domain comes from the species named. The note with it: Homo sapiens.
Take ENVTHPVECSYCHSESMMGFRYRCQQCHNYQLCQDCFWRGHAGGSHSNQHQMKEYTSWKS [F4T]: the abundance fitness worked out at 0.06 ± 0.066.
Regarding ENVMHPVECSYCHSESMMGFRYRCQQCHNYQLCQDCFWRGHAGGSHSNQHQMKEYTSWKS [F4M], the abundance fitness is -0.043 ± 0.079.
Consider ENVGHPVECSYCHSESMMGFRYRCQQCHNYQLCQDCFWRGHAGGSHSNQHQMKEYTSWKS [F4G], for which the abundance fitness is -0.014 ± 0.055.
ENVRHPVECSYCHSESMMGFRYRCQQCHNYQLCQDCFWRGHAGGSHSNQHQMKEYTSWKS [F4R]: the abundance fitness was -0.081 ± 0.049.
The same measure, in the same setting: the figure for ENVHHPVECSYCHSESMMGFRYRCQQCHNYQLCQDCFWRGHAGGSHSNQHQMKEYTSWKS [F4H] is -0.059 ± 0.067.
With ENVAHPVECSYCHSESMMGFRYRCQQCHNYQLCQDCFWRGHAGGSHSNQHQMKEYTSWKS [F4A], the abundance fitness is -0.049 ± 0.067.
On the same count and under the same terms, under ENVVHPVECSYCHSESMMGFRYRCQQCHNYQLCQDCFWRGHAGGSHSNQHQMKEYTSWKS [F4V] stands -0.01 ± 0.052.
Turning to RNVFHPVECSYCHSESMMGFRYRCQQCHNYQLCQDCFWRGHAGGSHSNQHQMKEYTSWKS [E1R], the abundance fitness was -0.462 ± 0.11.
The same measure, in the same setting: under GNVFHPVECSYCHSESMMGFRYRCQQCHNYQLCQDCFWRGHAGGSHSNQHQMKEYTSWKS [E1G] stands -0.336 ± 0.066; under ANVFHPVECSYCHSESMMGFRYRCQQCHNYQLCQDCFWRGHAGGSHSNQHQMKEYTSWKS [E1A], -0.257 ± 0.092.
As for DNVFHPVECSYCHSESMMGFRYRCQQCHNYQLCQDCFWRGHAGGSHSNQHQMKEYTSWKS [E1D], the abundance fitness amounted to 0.028 ± 0.091.
With VNVFHPVECSYCHSESMMGFRYRCQQCHNYQLCQDCFWRGHAGGSHSNQHQMKEYTSWKS [E1V], the abundance fitness was -0.211 ± 0.073.
The same measure, in the same setting: under SNVFHPVECSYCHSESMMGFRYRCQQCHNYQLCQDCFWRGHAGGSHSNQHQMKEYTSWKS [E1S] stands -0.183 ± 0.23; under TNVFHPVECSYCHSESMMGFRYRCQQCHNYQLCQDCFWRGHAGGSHSNQHQMKEYTSWKS [E1T], -0.166 ± 0.15.
The same measure, in the same setting: under MNVFHPVECSYCHSESMMGFRYRCQQCHNYQLCQDCFWRGHAGGSHSNQHQMKEYTSWKS [E1M] stands -0.377 ± 0.3; under YNVFHPVECSYCHSESMMGFRYRCQQCHNYQLCQDCFWRGHAGGSHSNQHQMKEYTSWKS [E1Y], 0.014 ± 0.15.
On to KNVFHPVECSYCHSESMMGFRYRCQQCHNYQLCQDCFWRGHAGGSHSNQHQMKEYTSWKS [E1K], for which the abundance fitness was -0.248 ± 0.33.
On the same count and under the same terms, the figure for PNVFHPVECSYCHSESMMGFRYRCQQCHNYQLCQDCFWRGHAGGSHSNQHQMKEYTSWKS [E1P] is -0.076 ± 0.45.
Consider CNVFHPVECSYCHSESMMGFRYRCQQCHNYQLCQDCFWRGHAGGSHSNQHQMKEYTSWKS [E1C], for which the abundance fitness turned out to be 0.297 ± 0.3.
Same read-out and setting: the figure for ENVFGPVECSYCHSESMMGFRYRCQQCHNYQLCQDCFWRGHAGGSHSNQHQMKEYTSWKS [H5G] is -0.127 ± 0.055; for ENVFCPVECSYCHSESMMGFRYRCQQCHNYQLCQDCFWRGHAGGSHSNQHQMKEYTSWKS [H5C] it is -0.024 ± 0.061; for ENVFEPVECSYCHSESMMGFRYRCQQCHNYQLCQDCFWRGHAGGSHSNQHQMKEYTSWKS [H5E] it is 0.145 ± 0.081.
The same measure, in the same setting: under ENVFFPVECSYCHSESMMGFRYRCQQCHNYQLCQDCFWRGHAGGSHSNQHQMKEYTSWKS [H5F] stands -0.201 ± 0.18.
Same read-out and setting: the figure for ENVFAPVECSYCHSESMMGFRYRCQQCHNYQLCQDCFWRGHAGGSHSNQHQMKEYTSWKS [H5A] is -0.195 ± 0.066; for ENVFIPVECSYCHSESMMGFRYRCQQCHNYQLCQDCFWRGHAGGSHSNQHQMKEYTSWKS [H5I] it is 0.321 ± 0.1; for ENVFKPVECSYCHSESMMGFRYRCQQCHNYQLCQDCFWRGHAGGSHSNQHQMKEYTSWKS [H5K] it is -0.028 ± 0.092.

Another series covers variants of B2. The series is described as above. The note with it: Homo sapiens.
In the case of LPHTAVCLVCGEAGKEDTVEEEEGKFNLMLMECSICNEIIHPGCLKIKESEGVVNDELPNCWECPSC [K66S], the abundance fitness is -0.284 ± 0.098.
On the same count and under the same terms, the figure for LPHTAVCLVCGEAGKEDTVEEEEGKFNLMLMECSICNEIIHPGCLKIKESEGVVNDELPNCWECPWC [K66W] is -0.846 ± 0.24; for LPHTAVCLVCGEAGKEDTVEEEEGKFNLMLMECSICNEIIHPGCLKIKESEGVVNDELPNCWECPTC [K66T] it is -0.079 ± 0.11.
Same read-out and setting: the figure for LPHTAVCLVCGEAGKEDTVEEEEGKFNLMLMECSICNEIIHPGCLKIKESEGVVNDELPNCWECPVC [K66V] is -0.173 ± 0.24.
Consider LPHTAVCLVCGEAGKEDTVEEEEGKFNLMLMECSICNEIIHPGCLKIKESEGVVNDELPNCWECPPC [K66P], for which the abundance fitness was -0.049 ± 0.16.
For LPHTAVCLVCGEAGKEDTVEEEEGKFNLMLMECSICNEIIHPGCLKIKESEGVVNDELPNCWECPQC [K66Q], the abundance fitness was -0.551 ± 0.25.
As for LPHTAVCLVCGEAGKEDTVEEEEGKFNLMLMECSICNEIIHPGCLKIKESEGVVNDELPNCWECPRC [K66R], the abundance fitness was -0.145 ± 0.084.
As to LPHTAVCLVCGEAGKEDTVEEEEGKFNLMLMECSICNEIIHPGCLKIKESEGVVNDELPNCWECPKT [C67T], the abundance fitness is -0.462 ± 0.27.
LPHTAVCLVCGEAGKEDTVEEEEGKFNLMLMECSICNEIIHPGCLKIKESEGVVNDELPNCWECPKK [C67K]: the abundance fitness was -0.667 ± 0.24.
On the same count and under the same terms, under LPHTAVCLVCGEAGKEDTVEEEEGKFNLMLMECSICNEIIHPGCLKIKESEGVVNDELPNCWECPKH [C67H] stands -0.28 ± 0.22; under LPHTAVCLVCGEAGKEDTVEEEEGKFNLMLMECSICNEIIHPGCLKIKESEGVVNDELPNCWECPKR [C67R], -1.26 ± 0.43; under LPHTAVCLVCGEAGKEDTVEEEEGKFNLMLMECSICNEIIHPGCLKIKESEGVVNDELPNCWECPKA [C67A], -0.676 ± 0.17.
Same read-out and setting: under LPHTAVCLVCGEAGKEDTVEEEEGKFNLMLMECSICNEIIHPGCLKIKESEGVVNDELPNCWECPKW [C67W] stands -1.43 ± 0.48; under LPHTAVCLVCGEAGKEDTVEEEEGKFNLMLMECSICNEIIHPGCLKIKESEGVVNDELPNCWECPKL [C67L], -1.03 ± 0.32; under LPHTAVCLVCGEAGKEDTVEEEEGKFNLMLMECSICNEIIHPGCLKIKESEGVVNDELPNCWECPKP [C67P], -0.867 ± 0.34.
In the case of LPHTAVCLVCGEAGKEDTVEEEEGKFNLMLMECSICNEIIHPGCLKIKESEGVVNDELPNCWECPKG [C67G], the abundance fitness is -0.992 ± 0.18.
Still for that read-out and setting: under LPHTAVCLVCGEAGKEDTVEEEEGKFNLMLMECSICNEIIHPGCLKIKESEGVVNDELPNCWECPKY [C67Y] stands -1.08 ± 0.29.
On the same count and under the same terms, the figure for LPHTAVCLVCGEAGKEDTVEEEEGKFNLMLMECSICNEIIHPGCLKIKESEGVVNDELPNCWECPKE [C67E] is -0.596 ± 0.41.
